Data taken from patent publication US20220175946A1 (MAGENTA THERAPEUTICS, published 2022).

Molecular target: Human CD117 as expressed on cells (Kasumi-1 cells; primary human CD34+ bone marrow cells) (human, UniProt P10721 26-976)
Assay: cell-based or functional assay

Human CD117 as expressed on cells (Kasumi-1 cells; primary human CD34+ bone marrow cells), sequence (P10721 26-976 limits assumed): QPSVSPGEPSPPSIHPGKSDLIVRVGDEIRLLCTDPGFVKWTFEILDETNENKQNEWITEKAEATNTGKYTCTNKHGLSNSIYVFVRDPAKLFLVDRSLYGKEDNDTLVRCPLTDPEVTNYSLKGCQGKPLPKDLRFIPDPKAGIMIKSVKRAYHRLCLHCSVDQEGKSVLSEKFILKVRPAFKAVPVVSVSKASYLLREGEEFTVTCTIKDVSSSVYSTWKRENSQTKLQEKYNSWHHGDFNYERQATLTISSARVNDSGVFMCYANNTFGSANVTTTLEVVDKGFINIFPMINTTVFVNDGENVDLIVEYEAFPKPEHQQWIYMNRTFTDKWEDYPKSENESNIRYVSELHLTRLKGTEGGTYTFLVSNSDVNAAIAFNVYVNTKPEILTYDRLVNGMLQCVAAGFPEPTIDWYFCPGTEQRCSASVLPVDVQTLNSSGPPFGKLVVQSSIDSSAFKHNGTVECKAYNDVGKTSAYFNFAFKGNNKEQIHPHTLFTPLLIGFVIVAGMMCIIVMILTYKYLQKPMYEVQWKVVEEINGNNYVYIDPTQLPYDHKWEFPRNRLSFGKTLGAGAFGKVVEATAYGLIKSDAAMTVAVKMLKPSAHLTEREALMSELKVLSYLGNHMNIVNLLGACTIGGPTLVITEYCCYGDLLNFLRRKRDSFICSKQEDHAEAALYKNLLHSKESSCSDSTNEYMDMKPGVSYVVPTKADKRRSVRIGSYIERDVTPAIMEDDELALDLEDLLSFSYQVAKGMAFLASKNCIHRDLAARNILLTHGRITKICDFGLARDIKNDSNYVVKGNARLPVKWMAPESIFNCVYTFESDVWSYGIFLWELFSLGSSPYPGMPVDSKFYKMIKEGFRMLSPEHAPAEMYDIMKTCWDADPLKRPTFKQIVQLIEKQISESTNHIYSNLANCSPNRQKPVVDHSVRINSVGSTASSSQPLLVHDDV

| Binder | AUC Kasumi-1 Killing (AUC hIgG1 - AUC MAC ID#) |
| --- | --- |
| Antibody 67 (Ab67) (antibody, V domains shown) VH: EVQLVESGGGLVQPGGSLRLSCAASGFTFSDADMDWVRQAPGKGLEWVGRTRNKAGSYTTEYAASVKGRFTISRDDSKNSLYLQMNSLKTEDTAVYYCAREPKYWIDFDLWGRGTLVTVSS VL: not shown | 156000 |
| Antibody 68 (Ab68) (antibody, V domains shown) VH: EVQLVESGGGLVQPGRSLRLSCTASGFTFSDHDMNWVRQAPGKGLEWVGRTRNAAGSYTTEYAASVKGRFTISRDDSKNSLYLQMNSLKTEDTAVYYCAREPKYWIDFDLWGRGTLVTVSS VL: not shown | 14400 |
| Antibody 66 (Ab66) (antibody, V domains shown) VH: EVQLVESGGGLVQPGGSLRLSCAASGFTFSDHYMDWVRQAPGKGLEWVGRTRNKASSYTTEYAASVKGRFTISRDDSKNSLYLQMNSLKTEDTAVYYCAREPKYWIDFDLWGRGTLVTVSS VL: not shown | 135000 |
| Antibody 69 (Ab69) (antibody, V domains shown) VH: EVQLVESGGGLVQPGGSLRLSCAASGFTFVDHDMDWVRQAPGKGLEWVGRTRNKLGSYTTEYAASVKGRFTISRDDSKNSLYLQMNSLKTEDTAVYYCAREPKYWIDFDLWGRGTLVTVSS VL: not shown | 40000 |
| Antibody 56 (Ab56) (antibody, V domains shown) VH: QVQLVQSGAEVKKPGSSVKVSCKASGGTFSLYAISWVRQAPGQGLEWMGGIIPAFGTANYAQKFQGRVTITADESTSTAYMELSSLRSEDTAVYYCARGGLDTDEFDLWGRGTLVTVSS VL: DIQMTQSPSSLSASVGDRVTITCRASQSINSYLNWYQQKPGKAPKLLIYAASSLQSGVPSRFSGSGSGTDFTLTISSLQPEDFATYYCQQGVSDITFGGGTKVEIKR | 193000 |
| Antibody 57 (Ab57) (antibody, V domains shown) VH: QVQLVQSGAEVKKPGSSVKVSCKASGGTFSLYAISWVRQAPGQGLEWMGGIIPHFGLANYAQKFQGRVTITADESTSTAYMELSSLRSEDTAVYYCARGGLDTDEFDLWGRGTLVTVSS VL: DIQMTQSPSSLSASVGDRVTITCRASQSINSYLNWYQQKPGKAPKLLIYAASSLQSGVPSRFSGSGSGTDFTLTISSLQPEDFATYYCQQGVSDITFGGGTKVEIKR | 157000 |
| Antibody 54 (Ab54) (antibody, V domains shown) VH: QVQLVQSGAEVKKPGSSVKVSCKASGGTFSSYAISWVRQAPGQGLEWMGGIIPIFGTANYAQKFQGRVTITADESTSTAYMELSSLRSEDTAVYYCARGGLDTDEFDLWGRGTLVTVSS VL: DIQMTQSPSSLSASVGDRVTITCRASQSINSYLNWYQQKPGKAPKLLIYAASSLQSGVPSRFSGSGSGTDFTLTISSLQPEDFATYYCQQGVSDITFGGGTKVEIKR | 155000 |
| Antibody 55 (Ab55) (antibody, V domains shown) VH: QVQLVQSGAEVKKPGSSVKVSCKASGGTFRIYAISWVRQAPGQGLEWMGGIIPDFGVANYAQKFQGRVTITADESTSTAYMELSSLRSEDTAVYYCARGGLDTDEFDLWGRGTLVTVSS VL: DIQMTQSPSSLSASVGDRVTITCRASQSINSYLNWYQQKPGKAPKLLIYAASSLQSGVPSRFSGSGSGTDFTLTISSLQPEDFATYYCQQGVSDITFGGGTKVEIKR | 226000 |
| CK6 (antibody, V domains shown) VH: QVQLVQSGAAVKKPGESLKISCKGSGYRFTSYWIGWVRQMPGKGLEWMGIIYPGDSDTRYSPSFQGQVTISAGKSISTAYLQWSSLKASDTAMYYCARHGRGYNGYEGAFDIWGQGTMVTVSS VL: AIQLTQSPSSLSASVGDRVTITCRASQGISSALAWYQQKPGKAPKLLIYDASSLESGVPSRFSGSGSGTDFTLTISSLQPEDFATYYCQQFNSYPLTFGGGTKVEIK | 132000 |
| Antibody 58 (Ab58) (antibody, V domains shown) VH: not shown VL: DIQMTQSPSSVSASVGDRVTITCRASQGISSWLAWYQQKPGKAPKLLIYAASSLQSGVPSRFSGSGSGTDFTLTISSLQPEDFATYYCQQTNSFPYTFGGGTKVEIKR | 97400 |
| Antibody 61 (Ab61) (antibody, V domains shown) VH: EVQLLESGGGLVQPGGSLRLSCAASGFTFSSYVMIWVRQAPGKGLEWVSSISGDSVTTYYADSVKGRFTISRDNSKNTLYLQMNSLRAEDTAVYYCAKGPPTYHTNYYYMDVWGKGTTVTVSS VL: DIQMTQSPSSVSASVGDRVTITCRASQGISSWLAWYQQKPGKAPKLLIYAASSLQSGVPSRFSGSGSGTDFTLTISSLQPEDFATYYCQQTNSFPYTFGGGTKVEIKR | 78600 |
